Measured values taken from publication PMC6778039.

Biological target: T1, ^35S-IRF3, Q14653
T1 chain: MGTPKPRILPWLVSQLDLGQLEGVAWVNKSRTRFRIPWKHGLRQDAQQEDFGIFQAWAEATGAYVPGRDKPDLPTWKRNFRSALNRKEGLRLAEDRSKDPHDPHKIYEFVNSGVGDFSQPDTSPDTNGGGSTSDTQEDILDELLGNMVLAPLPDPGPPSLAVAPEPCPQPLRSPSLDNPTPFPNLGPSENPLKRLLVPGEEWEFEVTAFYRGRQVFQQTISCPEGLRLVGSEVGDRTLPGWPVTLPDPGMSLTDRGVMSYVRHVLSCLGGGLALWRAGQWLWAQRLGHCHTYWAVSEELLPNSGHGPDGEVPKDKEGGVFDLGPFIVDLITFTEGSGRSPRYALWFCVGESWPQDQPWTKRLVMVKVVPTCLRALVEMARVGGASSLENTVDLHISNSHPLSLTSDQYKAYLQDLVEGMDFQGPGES
Assay: native gel or EMSA
Details: remark: other sources report otherwise

B1: ^35S-IRF3, Q14653 1-427 (natural protein)
chain: MGTPKPRILPWLVSQLDLGQLEGVAWVNKSRTRFRIPWKHGLRQDAQQEDFGIFQAWAEATGAYVPGRDKPDLPTWKRNFRSALNRKEGLRLAEDRSKDPHDPHKIYEFVNSGVGDFSQPDTSPDTNGGGSTSDTQEDILDELLGNMVLAPLPDPGPPSLAVAPEPCPQPLRSPSLDNPTPFPNLGPSENPLKRLLVPGEEWEFEVTAFYRGRQVFQQTISCPEGLRLVGSEVGDRTLPGWPVTLPDPGMSLTDRGVMSYVRHVLSCLGGGLALWRAGQWLWAQRLGHCHTYWAVSEELLPNSGHGPDGEVPKDKEGGVFDLGPFIVDLITFTEGSGRSPRYALWFCVGESWPQDQPWTKRLVMVKVVPTCLRALVEMARVGGASSLENTVDLHISNSHPLSLTSDQYKAYLQDLVEGMDFQGPGES
modifications: here or on the partner: 35S label; 35S label
- stoichiometry N: 2
